Results as given in patent publication US20150064789.

How the values were obtained:
Assay in all cases: cell_activity
[1] = test system: CCR5 ZFN pair, wild-type ZC linker (8266 with partner) (artificial); settings: average of 2
[2] = test system: CCR5 ZFN pair, L6a linker (artificial); settings: average of 2
[3] = test system: CCR5 ZFN pair, L7a linker (artificial); settings: average of 2
[4] = test system: mROSA ZFN pair, Wt/Wt linkers (artificial); settings: Neuro2A, CEL-I; replicates 23.2, 18.7; mock 0.4
[5] = test system: mROSA ZFN pair, Wt/L7a linkers (artificial); settings: Neuro2A, CEL-I; mock 0.4
[6] = test system: rat IgM ZFN pair, ZC linkers (artificial); settings: rat C6 cells, CEL-I
[7] = test system: rat IgM ZFN pair, L7a linker (artificial); settings: rat C6 cells, CEL-I

| Substance | activity [1] [% NHEJ] | activity [2] [% NHEJ] | activity [3] [% NHEJ] | further results |
| --- | --- | --- | --- | --- |
| CCR5 target, 4 bp gap | 1.2 | – | – | – |
| CCR5 target, 5 bp gap | 35 | 39.3 | – | – |
| GTCATCCTCATCCTGGTTTAAACTGCAAAAG (double strand) [CCR5 target, 7 bp gap] | – | 5.1 | 39.6 | – |
| CCR5 target, 6 bp gap | 11.1 | 25.4 | 31.8 | – |
| mROSA target, 6 bp gap | – | – | – | activity [4]: 22.6 % NHEJ; activity [5]: 7.5 % NHEJ |
| rat IgM target, 6 bp gap | – | – | – | activity [6]: 1.93 % NHEJ; activity [7]: 2.43 % NHEJ |
| GTCATCCTCATCCTGAGTTTAAACTGCAAAAG (double strand) [CCR5 target, 8 bp gap] | – | – | 6.1 | – |
